The target in the test is T1, Shp1/Ubx1 (purified) (S. cerevisiae, UniProt P34223 1-423).
T1 construct: Shp1/Ubx1, UBX-family cofactor of Cdc48, S. cerevisiae; also called Shp1/Uxb1; source: purified
T1 sequence (looked up): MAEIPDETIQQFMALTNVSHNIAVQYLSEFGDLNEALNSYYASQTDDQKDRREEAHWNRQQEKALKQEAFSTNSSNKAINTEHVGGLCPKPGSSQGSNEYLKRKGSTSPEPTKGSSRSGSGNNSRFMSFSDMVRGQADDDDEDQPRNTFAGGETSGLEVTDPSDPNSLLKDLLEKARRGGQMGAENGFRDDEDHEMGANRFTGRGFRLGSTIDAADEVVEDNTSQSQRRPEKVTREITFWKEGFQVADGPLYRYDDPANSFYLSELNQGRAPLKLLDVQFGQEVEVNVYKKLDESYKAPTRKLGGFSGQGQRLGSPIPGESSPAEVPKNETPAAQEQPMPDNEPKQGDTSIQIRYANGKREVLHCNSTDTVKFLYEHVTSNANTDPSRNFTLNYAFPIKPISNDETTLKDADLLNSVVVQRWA
Kind of test: ITC; 25 °C; 220 μM Shp1 injected into 16 μM Cdc48-NTD (WT or C115S); 2 μL injections, 150 s spacing; Malvern MicroCal PEAQ-ITC. The following applies: both partners purified. (In general: ITC needs no label: the signal is the heat of the interaction.)

Consider one molecule from paper PMC12137173, “Cdc48 plays a crucial role in redox homeostasis through dynamic reshaping of its interactome during early stationary phase” (Redox Biology, 2025).

B1: Cdc48-NTD-WT (domain or fragment)
chain: MGEEHKPLLDASGVDPREEDKTATAILRRKKKDNMLLVDDAINDDNSVIAINSNTMDKLELFRGDTVLVKGKKRKDTVLIVLIDDELEDGACRINRVVRNNLRIRLGDLVTIHPCPDIKYATRISVLPIADTIEGITGNLFDVFLKPYFVEAYRPVRKGDHFVVRGGMRQVEFKVVDVEPEEYAVVAQDTIIHWEGEPINREDEENNMN
modifications: Construct limits are not printed. Taken by convention as the equivalent of human p97 N domain 1-199, using the +10 offset shown by Cys209 hVCP = Cys219 Cdc48.
For B1, the Kd (commonly a measure of binding affinity in units of concentration) was 14.2 µM.
